Molecular target: integrin αIIb cytoplasmic tail peptide (starting from W988)
Assay: ITC

Kd: 14.2 ± 4.3 µM
B1: skelemin tandem IgC2 domains 4 and 5 with the interconnecting linker, C1354S (domain or fragment)
chain: DEEEMKRLLALSQEHKFPTVPTKSELAVEILEKGQVRFWMQAEKLSSNAKVSYIFNEKEIFEGPKYKMHIDRNTGIIEMFMEKLQDEDEGTYTFQIQDGKATGHSTLVLIGDVYKKLQKEAEFQRQEWIRKQGPHFAEYLSWEVTGESNVLLKCKVANIKKETHIVWYKDEREISVDEKHDFKDGICTLLITEFSKKDAGFYEVILKDDRGKDKSRLKLVD
modifications: uniformly 15N or 15N/13C labelled for NMR
